Assays:
[1] = system: ENaC; experiment: Amiloride-sensitive short circuit current in FRT epithelia with ENaC: Nedd4-2 dose response with SGK, SGKY298A or GFP; format: cell-based; conditions: FRT epithelia with α-, β-, γENaC, increasing amounts of Nedd4-2 (0–0.2 µg), no SGK; amiloride 10 µM; n = 18
Description: To test the hypothesis that the interaction of the Nedd4-2 WW-domains with the SGK PY motif is required for SGK to influence Nedd4-2 function, we co-expressed α-, β- and γENaC in FRT epithelia with either wild type SGK or SGKY298A along with increasing amounts of Nedd4-2, and measured the amiloride-sensitive short circuit current.
Figure 4 The SGK PY motif is necessary for SGK to inhibit Nedd4-2. Amiloride-sensitive short-circuit sodium current (relative to 0 µg of Nedd4-2) in FRT cells 48 hr after transfection with α-, β- and γENaC and SGK (closed circles) or SGKY298A (open circles) or GFP (closed squares), in the presence of increasing amounts of Nedd4-2, n = 18. Nedd4-2 is expressed as a fraction of the amount of ENaC cDNA. Expression of SGK and SGKY298A was reported in Figure 1B of Snyder et al..
Fischer rat thyroid (FRT) cells were grown on permeable filter supports (Snapwell™, Corning USA or Millicell PCF, both with […] pore size, 12 mm diameter) in F-12 Coon's media with 5% fetal calf serum (Sigma), 100 U/ml penicillin, and 100 µg/ml streptomycin at 37°C. One day after seeding, cells were cotransfected with α-, β- and γENaC (0.07 µg each), 0.6 µg wildtype or mutant SGK, and 0–0.2 µg Nedd4-2 (Fig. 4 only). Total DNA was held constant (1 µg/millicell) using cloning vector DNA. The plasmids were mixed with Lipofectamine 2000 (Invitrogen) or TFX 50 (Promega, Madison, WI; 7.9 µg/millicell) in serum free F12 Coon's media for 15 minutes and transferred to the apical surface of the monolayer. One-six hours later, the apical media was replaced with F-12 Coon's media containing 5% fetal calf serum and amiloride (10 µM). Short-circuit current was measured […] after transfection in modified Ussing chambers connected to a voltage clamp (South Campus Electronics, Dunedin, New Zealand or Warner Instruments). The apical and basolateral surfaces were bathed in (in mM) 135 NaCl, 1.2 CaCl2, 1.2 MgCl2, 2.4 K2HPO4, 0.6 KH2PO4, 10 HEPES, pH 7.4, at 37°C and bubbled with O2. Amiloride-sensitive short-circuit current (Isc-amiloride) was determined as the difference in current with and without amiloride (10 µM) in the apical bathing solution. Data are presented as relative Isc-amiloride (Isc-amiloride relative) that was obtained by normalizing the Isc-amiloride to that of control cells transfected with αβγENaC in the same experiment. Transepithelial resistance (Rt) was monitored by applying repetitive voltage potential pulses (5 mV for 1 sec at 120 sec intervals) across the epithelium.

[2] = system: SGK; experiment: Co-immunoprecipitation of Nedd4-2 with SGK in COS7 cells; format: binding, human; conditions: Nedd4-2-FLAG and SGK-HA, IP anti-HA, blot anti-FLAG, data not shown
Description: Co-immunoprecipitation was used to characterize an in vitro interaction between Nedd4-2 and SGK. Nedd4-2-FLAG and SGK-HA were co-expressed in COS7 cells, SGK was immunoprecipitated with anti-HA, and the presence of Nedd4-2 in the immunoprecipitates was assessed by western blotting with anti-FLAG. […] We reasoned that SGK would be rapidly turned over in the cells, and this would be enhanced by overexpression of active Nedd4-2, since Nedd4-2 is known to induce degradation of SGK [23]. Therefore we co-expressed a stable form of SGK (ΔN60SGK-HA, lacking the first 60 amino acids of SGK), together with a ligase-dead form of Nedd4-2 (Nedd4-2C821A–FLAG).
(A) ΔN60SGK-HA and Nedd4-2C821A–FLAG were transiently co-expressed, or expressed alone as indicated, in COS7 cells. Complexes were immunoprecipitated with anti-HA antibody. Immunoprecipitates were analyzed by 10% SDS-PAGE and sequential western blotting (IB) with anti-FLAG antibody (Nedd4-2) and anti-HA antibody (ΔN60SGK). Expression of the proteins (5% input) is shown in the bottom panel, n = 3. Either ΔN60SGK-HA (B, E) or SGK-FLAG (C, D) was transiently expressed in COS7 cells. […] Bound SGK was analyzed by immunostaining with anti-FLAG/HA antibody. […]
COS7 cells were co-transfected with ΔN60SGK-HA and Nedd4-2C821A-FLAG. […] The beads were washed four times in T-TBS and analysed by SDS-PAGE and Western blotting with anti-FLAG (Sigma).

B1: Nedd4-2: ubiquitin ligase, Nedd4-family member, human (protein)
chain: MERPYTFKDFLLRPRSHKSRVKGFLRLKMAYMPKNGGQDEENSDQRDDMEHGWEVVDSNDSASQHQEELPPPPLPPGWEEKVDNLGRTYYVNHNNRTTQWHRPSLMDVSSESDNNIRQINQEAAHRRFRSRRHISEDLEPEPSEGGDVPEPWETISEEVNIAGDSLGLALPPPPASPGSRTSPQELSEELSRRLQITPDSNGEQFSSLIQREPSSRLRSCSVTDAVAEQGHLPPPSAPAGRARSSTVTGGEEPTPSVAYVHTTPGLPSGWEERKDAKGRTYYVNHNNRTTTWTRPIMQLAEDGASGSATNSNNHLIEPQIRRPRSLSSPTVTLSAPLEGAKDSPVRRAVKDTLSNPQSPQPSPYNSPKPQHKVTQSFLPPGWEMRIAPNGRPFFIDHNTKTTTWEDPRLKFPVHMRSKTSLNPNDLGPLPPGWEERIHLDGRTFYIDHNSKITQWEDPRLQNPAITGPAVPYSREFKQKYDYFRKKLKKPADIPNRFEMKLHRNNIFEESYRRIMSVKRPDVLKARLWIEFESEKGLDYGGVAREWFFLLSKEMFNPYYGLFEYSATDNYTLQINPNSGLCNEDHLSYFTFIGRVAGLAVFHGKLLDGFFIRPFYKMMLGKQITLNDMESVDSEYYNSLKWILENDPTELDLMFCIDEENFGQTYQVDLKPNGSEIMVTNENKREYIDLVIQWRFVNRVQKQMNAFLEGFTELLPIDLIKIFDENELELLMCGLGDVDVNDWRQHSIYKNGYCPNHPVIQWFWKAVLLMDAEKRIRLLQFVTGTSRVPMNGFAELYGSNGPQLFTIEQWGSPEKLPRAHTCFNRLDLPPYETFEDLREKLLMAVENAQGFEGVD
modifications: left off: FLAG, C-terminal, kept
notes: ubiquitin ligase, Nedd4-family member, human
- inhibition of ENaC by Nedd4-2 in the absence of SGK (in words) [1]: inhibited ENaC in a dose-dependent manner
- co-immunoprecipitation with SGK (in words) [2]: co-precipitated with SGK but the amount of Nedd4-2 co-precipitated was small
